Measured values from patent publication US9580731B2, “Methods of producing 7-carbon chemicals via c1 carbon chain elongation associated with coenzyme B synthesis” (INVISTA North America S.á r.l., priority 2012, dated 2017).

Tests used:
Format in all cases: biochemical
[1] = Carboxylate reductase activity assay, N7-acetyl-7-aminoheptanoate to N7-acetyl-7-aminoheptanal (NADPH consumption); conditions: 2 mM N7-acetyl-7-aminoheptanoate, enhanced by gene product of sfp, room temperature, 20 min, against empty vector control, FIG. 12
Protocol: The activity of each of the N-terminal His-tagged carboxylate reductases of SEQ ID NOs: 3, 6, and 7 (see Examples 4, and FIG. 7) for converting N7-acetyl-7-aminoheptanoate to N7-acetyl-7-aminoheptanal was assayed in triplicate in a buffer composed of a final concentration of 50 mM HEPES buffer (pH=7.5), 2 mM N7-acetyl-7-aminoheptanoate, 10 mM MgCl2, 1 mM ATP, and 1 mM NADPH. The assays were initiated by adding purified carboxylate reductase and phosphopantetheine transferase or the empty vector control to the assay buffer containing the N7-acetyl-7-aminoheptanoate then incubated at room temperature for 20 min. The consumption of NADPH was monitored by absorbance at 340 nm.

[2] = Carboxylate reductase activity assay, pimelate to pimelate semialdehyde (NADPH consumption); conditions: 2 mM pimelate, enhanced by gene product of sfp, room temperature, 20 min, against empty vector control, FIG. 10
Protocol: A sequence encoding a HIS-tag was added to the genes from Segniliparus rugosus and Segniliparus rotundus that encode the carboxylate reductases of SEQ ID NOs: 4 and 7, respectively (see FIG. 7), such that N-terminal HIS tagged carboxylate reductases could be produced. Each of the modified genes was cloned into a pET Duet expression vector along with a sfp gene encoding a HIS-tagged phosphopantetheine transferase from Bacillus subtilis, both under the T7 promoter. Each expression vector was transformed into a BL21[DE3] E. coli host and the resulting recombinant E. coli strains were cultivated at 37° C. in a 250 mL shake flask culture containing 50 mL LB media and antibiotic selection pressure, with shaking at 230 rpm. Each culture was induced overnight at 37° C. using an auto-induction media.
The pellet from each induced shake flask culture was harvested via centrifugation. Each pellet was resuspended and lysed via sonication, and the cell debris was separated from the supernatant via centrifugation. […]
Enzyme activity assays (i.e., from pimelate to pimelate semialdehyde) were performed in triplicate in a buffer composed of a final concentration of 50 mM HEPES buffer (pH=7.5), 2 mM pimelate, 10 mM MgCl2, 1 mM ATP and 1 mM NADPH. […] The consumption of NADPH was monitored by absorbance at 340 nm.

[3] = Thioesterase enzyme activity assay, pimeloyl-CoA to pimelate (release of CoA, Ellman's reagent); conditions: 667 μM pimeloyl-CoA, 0.8 μM enzyme, pH 7.4, 37° C., 20 min, relative to empty vector control, FIG. 8
Protocol: A sequence encoding an N-terminal His tag was added to the tesB gene from Escherichia coli that encodes a thioesterase (SEQ ID NO 1, see FIG. 7), such that an N-terminal HIS tagged thioesterase could be produced. The modified tesB gene was cloned into a pET15b expression vector under control of the T7 promoter. The expression vector was transformed into a BL21[DE3] E. coli host. The resulting recombinant E. coli strain was cultivated at 37° C. in a 500 mL shake flask culture containing 50 mL Luria Broth (LB) media and antibiotic selection pressure, with shaking at 230 rpm. The culture was induced overnight at 17° C. using 0.5 mM IPTG.
The pellet from the induced shake flask culture was harvested via centrifugation. The pellet was resuspended and lysed in Y-Per™ solution (ThermoScientific, Rockford, Ill.). The cell debris was separated from the supernatant via centrifugation. […]
The enzyme activity assay was performed in triplicate in a buffer composed of 50 mM phosphate buffer (pH=7.4), 0.1 mM Ellman's reagent, and 667 μM of pimeloyl-CoA (as substrate). […] The release of Coenzyme A was monitored by absorbance at 412 nm. The absorbance associated with the substrate only control, which contained boiled enzyme, was subtracted from the active enzyme assay absorbance and compared to the empty vector control.

B1: SEQ ID NO 6: Mycobacterium massiliense carboxylate reductase, Genbank Accession No. EIV11143.1 (protein)
chain: MTNETNPQQEQLSRRIESLRESDPQFRAAQPDPAVAEQVLRPGLHLSEAIAALMTGYAERPALGERARELVIDQDGRTTLRLLPRFDTTTYGELWSRTTSVAAAWHHDATHPVKAGDLVATLGFTSIDYTVLDLAIMILGGVAVPLQTSAPASQWTTILAEAEPNTLAVSIELIGAAMESVRATPSIKQVVVFDYTPEVDDQREAFEAASTQLAGTGIALETLDAVIARGAALPAAPLYAPSAGDDPLALLIYTSGSTGAPKGAMHSENIVRRWWIREDVMAGTENLPMIGLNFMPMSHIMGRGTLTSTLSTGGTGYFAASSDMSTLFEDMELIRPTALALVPRVCDMVFQRFQTEVDRRLASGDTASAEAVAAEVKADIRDNLFGGRVSAVMVGSAPLSEELGEFIESCFELNLTDGYGSTEAGMVFRDGIVQRPPVIDYKLVDVPELGYFSTDKPHPRGELLLKTDGMFLGYYKRPEVTASVFDADGFYMTGDIVAELAHDNIEIIDRRNNVLKLSQGEFVAVATLEAEYANSPVVHQIYVYGSSERSYLLAVVVPTPEAVAAAKGDAAALKTTIADSLQDIAKEIQLQSYEVPRDFIIEPQPFTQGNGLLTGIAKLARPNLKAHYGPRLEQMYAEIAEQQAAELRALHGVDPDKPALETVLKAAQALLGVSSAELAADAHFTDLGGDSLSALSFSDLLRDIFAVEVPVGVIVSAANDLGGVAKFVDEQRHSGGTRPTAETVHGAGHTEIRAADLTLDKFIDEATLHAAPSLPKAAGIPHTVLLTGSNGYLGHYLALEWLERLDKTDGKLIVIVRGKNAEAAYGRLEEAFDTGDTELLAHFRSLADKHLEVLAGDIGDPNLGLDADTWQRLADTVDVIVHPAALVNHVLPYNQLFGPNVVGTAEIIKLAITTKIKPVTYLSTVAVAAYVDPTTFDEESDIRLISAVRPIDDGYANGYGNAKWAGEVLLREAHDLCGLPVAVFRSDMILAHSRYTGQLNVPDQFTRLILSLIATGIAPGSFYQAQTTGERPLAHYDGLPGDFTAEAITTLGTQVPEGSEGFVTYDCVNPHADGISLDNFVDWLIEAGYPIARIDNYTEWFTRFDTAIRGLSEKQKQHSLLPLLHAFEQPSAAENHGVVPAKRFQHAVQAAGIGPVGQDGTTDIPHLSRRLIVKYAKDLEQLGLL
modifications: Mycobacterium massiliense
For B1, the “carboxylate reductase activity for converting N7-acetyl-7-aminoheptanoate to N7-acetyl-7-aminoheptanal (NADPH consumption, absorbance at 340 nm)” value [1] was “accepted N7-acetyl-7-aminoheptanoate as substrate”.

B2: SEQ ID NO 4: Segniliparus rugosus carboxylate reductase, Genbank Accession No. EFV11917.1 (protein, listed as Segniliparus rugosus)
chain: MGDGEERAKRFFQRIGELSATDPQFAAAAPDPAVVEAVSDPSLSFTRYLDTLMRGYAERPALAHRVGAGYETISYGELWARVGAIAAAWQADGLAPGDFVATVGFTSPDYVAVDLAAARSGLVSVPLQAGASLAQLVGILEETEPKVLAASASSLEGAVACALAAPSVQRLVVFDLRGPDASESAADERRGALADAEEQLARAGRAVVVETLADLAARGEALPEAPLFEPAEGEDPLALLIYTSGSTGAPKGAMYSQRLVSQLWGRTPVVPGMPNISLHYMPLSHSYGRAVLAGALSAGGTAHFTANSDLSTLFEDIALARPTFLALVPRVCEMLFQESQRGQDVAELRERVLGGRLLVAVCGSAPLSPEMRAFMEEVLGFPLLDGYGSTEALGVMRNGIIQRPPVIDYKLVDVPELGYRTTDKPYPRGELCIRSTSLISGYYKRPEITAEVFDAQGYYKTGDVMAEIAPDHLVYVDRSKNVLKLSQGEFVAVAKLEAAYGTSPYVKQIFVYGNSERSFLLAVVVPNAEVLGARDQEEAKPLIAASLQKIAKEAGLQSYEVPRDFLIETEPFTTQNGLLSEVGKLLRPKLKARYGEALEARYDEIAHGQADELRALRDGAGQRPVVETVVRAAVAISGSEGAEVGPEANFADLGGDSLSALSLANLLHDVFEVEVPVRIIIGPTASLAGIAKHIEAERAGASAPTAASVHGAGATRIRASELTLEKFLPEDLLAAAKGLPAADQVRTVLLTGANGWLGRFLALEQLERLARSGQDGGKLICLVRGKDAAAARRRIEETLGTDPALAARFAELAEGRLEVVPGDVGEPKFGLDDAAWDRLAEEVDVIVHPAALVNHVLPYHQLFGPNVVGTAEIIRLAITAKRKPVTYLSTVAVAAGVEPSSFEEDGDIRAVVPERPLGDGYANGYGNSKWAGEVLLREAHELVGLPVAVFRSDMILAHTRYTGQLNVPDQFTRLVLSLLATGIAPKSFYQQGAAGERQRAHYDGIPVDFTAEAITTLGAEPSWFDGGAGFRSFDVFNPHHDGVGLDEFVDWLIEAGHPISRIDDHKEWFARFETAVRGLPEAQRQHSLLPLLRAYSFPHPPVDGSVYPTGKFQGAVKAAQVGSDHDVPHLGKALIVKYADDLKALGLL
For B2, the “carboxylate reductase activity for converting pimelate to pimelate semialdehyde (NADPH consumption, absorbance at 340 nm)” value [2] was “accepted pimelate as substrate”.

B3: gene product of tesB: Escherichia coli thioesterase encoded by tesB, GenBank Accession No. AAA24665.1 (protein, listed as Escherichia coli)
chain: MSQALKNLLTLLNLEKIEEGLFRGQSEDLGLRQVFGGQVVGQALYAAKETVPEERLVHSFHSYFLRPGDSKKPIIYDVETLRDGNSFSARRVAAIQNGKPIFYMTASFQAPEAGFEHQKTMPSAPAPDGLPSETQIAQSLAHLLPPVLKDKFICDRPLEVRPVEFHNPLKGHVAEPHRQVWIRANGSVPDDLRVHQYLLGYASDLNFLPVALQPHGIGFLEPGIQIATIDHSMWFHRPFNLNEWLLYSVESTSASSARGFVRGEFYTQDGVLVASTVQEGVMRNHN
With B3 the “thioesterase activity for converting pimeloyl-CoA to pimelate (released CoA, absorbance at 412 nm)” value [3] was “accepted pimeloyl-CoA as substrate”.
